# Laboratory results reported in the DeepSol protein solubility set.
# Experiment: soluble on expression in E. coli; label from the status in PepcDB or PDB records
row,Sequence,soluble on expression in E. coli
1,MTDQQRRVVFMATSLLLDYPDDRWEDIIDAVSVQIDDLPKNTRQQFVQFLTAVRVMGRRGMEQHYVECFDQRRRCSLFLSYYAVGDTRQRGAAILAFQESLETLGFFLEREELPDHLCVVLEVAAKAEGLAHHVATDMLAAHRDGIEVLRVALEHSDSPYSRLVAAVCSALPDIDEETRKNFVDLIRSGPPAELIGIESPLPFPTATNV,not soluble
2,PKYQANTQILVNQTKGDNPQFMAQEVQSNIQLVNTYKEIVKSPRILDEVSKDLNDKYSPSKLSSMLTITNQENTQLINIQVKSGHKQDSEKIANSFAKVTSKQIPKIMSVDNVSILSKADGTAVKVAPKT,not soluble
3,MQNIFDPLIIRGKSLIPIVQGGMGVGVSASGLSSAVARENGIGTIASVDLRHLHEDLLAESQINPSEEKYTSLNCTALDREIQKAKSASEGKGLIAVNVMKAVKDHAAYVRQACESGADAVVMGAGLPLDLPEMTEGYHKDVALLPILSESRGINIVLKRWMKKGILPDAIVVEHPAHAAGHLGASTVEGVNDAKFDFKRVIEETFEVFKNLGLEGEKIPLILAGGMANFEKVKTALKNWGASAVQIGTAFAVTEEGDAHLNFKKTLASAETEKVVEFMSVAGLPARGIRTKFLDSYIRREGKLQANAKADPRRCTQGLNCLTSCGLRDGLSKAGQFCIDIQLAAAFRGEVDKGLFFRGKDQLPFGNAIRTVRETIQYLLTGSEPVATLGR,not soluble
4,MTSLEKARELLREFPVVDGHNDLPWALREQVRYDLDARDIAADQSAHLHTDLARLRSGGVGAQYWSVYVRSDLPGAVTATLEQIDCVRRLIDRHPGELRAALTAADMEAARAEGRIASLMGAEGGHSIDNSLATLRALYALGVRYMTLTHNDNNAWADSATDEPGVGGLSAFGREVVREMNREGMLVDLSHVAATTMRDALDTSTAPVIFSHSSSRAVCDHPRNIPDDVLERLSANGGMAMVTFVPKFVLQAAVDWTAEADDNMRAHGFHHLDSSPEAMKVHAAFEERVPRPVATVSTVADHLDHMREVAGVDHLGIGGDYDGTPFTPDGLGDVSGYPNLIAELLDRGWSQSDLAKLTWKNAVRVLDAAEDVSRGLRAARGPSNATIEQLDGTAAEQPEG,soluble
5,MDKSNGLRVILFPLPLQGCINPMIQLAKILHSRGFSITVIHTRFNAPKASNHPLFTFLQIPDGLSETETRTHDITLLLTLLNRSCESPFRECLTKLLQSADSETGEEKQRISCLIDDSGWIFTQPVAQSFNLPRLVLNTYKVSFFRDHFVLPQLRREMYLPLQDSEQGDDPVEEFPPLRKKDLLQILDQESEQLDSYSNMILETTKASSGLIFVSTCEELDQDSLSQAREDYQVPIFTIGPSHSYFPGSSSSLFTVDETCIPWLDKQEDKSVIYVSFGSISTIGEAEFMEIAWALRNSDQPFLWVVRGGSVVHGAEWIEQLHEKGKIVNWAPQQEVLKHQAIGGFLTHNGWNSTVESVFEGVPMICMPFVWDQLLNARFVSDVWMVGLHLEGRIERNVIEGMIRRLFSETEGKAIRERMEILKENVGRSVKPKGSAYRSLQHLIDYITYF,soluble
6,MFTGLVEETGEILKVEEGPFLRVYIGARKVLKDLKVGDSVAVDGACLTAVTVEEGGFWVELAQETLRRTAPTWRVGHRPNLERALKVGDRLGGHFVTGHVDGVARLWEVREAPGAKDFYFLPPKALAPYIAEKGSVALNGVSLTVAGLTGEAFWVTLIPHTLEVTNLGRLRVGDGVNLEVDLIARYVARLLGRA,soluble
7,MGSDKIHHHHHHMSNIYDAVVVGSGPNGLAAAITLQRKGFAVLVLEAKDTIGGGLRTKELTLPGFKHDVCSAIHPMAVASPFFADIPLDKFGLRFTHAPIAAAHPFDHGGAAILSRSLKDTIALLGKDADNYKRLIEPVIESWPDIAADAMGPLRFPKHPLKMAAFGLNAIRSADCISKRFETEEAKGLWAGMAAHSIQPLTNWASAAIGLVLSAVGHLHGWPIPIGGSQAIADALGSYFISLGGTIQTNVEVTSLNQLPAARAVLFDVTPKQLLKITGDEFSGLYKKQLTNYRYGMGVFKVDWALSEPVPFTSDHCRQAGTVHLGNTFNEIALSEQETSSGKHPEKPFVLFAQQSKFDITRAPQGKHTAWAYCHVPNGSATDMTAAIENQLERFAPGFKDTILAKNTMNTVEIQAYNPNYIGGDINGGIIDIRQLYTRPAVKISPYRTPKKGIYICSSSTPPGGGVHGMCGFHAAQAVIQDLKKQYK,not soluble
8,MGSDKIHHHHHHMKKNILHIHGFNSSPLSLKAEQTRKYMAKNFPNVGFYCPQLATTPANAMSQLEQLIETHDSNAKWYLIGSSLGGYFAHYLAKKYDCLAVLVNPAITPYELLHDYIGEQVNPYTEEVYQVTEDHMQQLKALEQTAPTIDCTEKNNYLVMVQTGDEVLNYQQAVEKYQYCRLIVQEGGDHSFINFDNCLPTISDFFQLDNTKRINSR,not soluble
9,MPKLGIKPLRRQQLIDATLRSISERGLQNTTIVSISKIAGMSSGIISHYFGGKKELIEETVSYLLDQLQQSLLERITEENPPAHIRLNLIVEANFTEFQRSLLATKTWLSFWAMSMHDPAMARLQSINSNRLHSNLLFSFKELLDPESAANAAKQTAAMIDGFWLRSALSENSEQEFIAAELLCKKFINDVIKQEISNASN,not soluble
10,GSMPKPINVRVTTMDAELEFAIQPNTTGKQLFDQVVKTVGLREVWFFGLQYVDSKGYSTWLKLNKKVTQQDVKKENPLQFKFRAKFFPEDVSEELIQEITQRLFFLQVKEAILNDEIYCPPETAVLLASYAVQAKYGDYNKEIHKPGYLANDRLLPQRVLEQHKLTKEQWEERIQNWHEEHRGMLREDSMMEYLKIAQDLEMYGVNYFEIKNKKGTELWLGVDALGLNIYEHDDKLTPKIGFPWSEIRNISFNDKKFVIKPIDKKAPDFVFYAPRLRINKRILALCMGNHELYMRRRKPDTIEVQQMKAQARVDSSGRIVTD,soluble
11,MGSDKIHHHHHHMSPLAYSVANVNLESSHPTGALSVNLLSGRDVRRWDDFVSCCREATFFHRAGWQTVIERAFGHKTWFLYAECEGEIQGVLPLAEINSRLFGHSLSSLPFCVYGGIAADSQTVRDALDRSAQKLAQELQVDYLEYRNLKPHHADWHGKDLYVTFRKEIASEIEQNMSAIPRKQRAMVRKGIKAGLESVVDQDIERFFSAYSASVHRLGTPVFSRKYFRLLKEVFAEDCELMIIVKDNRTISAVMSFYFRDEVLPYYGGGTGEAREVAGNDFMYWELMRRACEKGCKVFDFGRSKRGSGSFDFKKNWGFEPQPLHYEYQLHQAKEVPDHNPLNPRYQIFIKAWQKLPLGLANLVGPHIVRNLG,not soluble
12,GAADKRIDGNGNPETREIKISDYDEITFVGSADFEYEQSDKAPYLSVTIDENLFDYLVTEVEGGTLKIYPKSIKKGFNNNSYDLRPTVYKIKSNSKELKELNTVGSGSFIISKPTKVNRMEINMAGSGNVELRGPVKGYKLECNMAGSGNIIAKDIQLDNLSCSLASSGEIEVIGTVDRASFNVAGSGEIKAFDCQARKAECNIASSGEISVYATQILDANIVGSGEIHYKGDPEISKSIMGSGSINKVK,soluble
13,MLTVTFTVSNTGDRAGAAVPQVYPGFPNTTIDRCVRELKAFRRVELEPGQRQTVTVALTRRDLSYWDILPHPLRSYAVGSILEHHHHHH,not soluble
14,MGSDKIHHHHHHMDLKKWQDPLMNSELQQNYNDNLVKLAGSLEKANQDMTHVNQRISNLVIKSGGNESNEVVDARVSSLVPETEFTTLNDRINYAENALITGVGKLSTNVFDLMDKYNDIDTILKRLYGLDSSNIEIFVDDARGDDIAGTGEIDAPFKTINKAVMTLPRVLNSNSVNIWIVPGRYNEDVVIPPIMGGDIYIRSTNFETVDPTSSTGCQVRSISATGSNGYLYIAGLEETNTAGTTKNYFIKATRCGFVRITKCRMAFNTKAIDPFTAVFIDACSADVNGCYFASQNVDVRGYNTARVEVQNIVHGAKSAIGLYPQSADIFNLNSGTWEADTPTKLSGGGVVRT,not soluble
15,MMLEQLIQLKQDLIDGSKVEKPSLDDKQIDEMDILVSEALEFNKELKFKLFNKGFVENVTGRVHYINFEQQKLHVKDQNDNTVYINMNNIIRVIYND,not soluble
16,MKKIALAVLSLGLLVSGCSAGADKDEKVAEKSGKAKEQSVVPKYAISDEYYKTTIPFDGGNARGLVVQGLNSRLDIDEFETGLMRIAKESFSTKDNFLKGGKALDTQTIQMLVKRKRTDAEQKELEDKLKKDAVKFPNIGLNPALGTGSESLEVKNKKNPIYISNILEHDYYVKKGDNGEERVGMVVGLAMNSVQYFNEEHGYPREAAIPDEKMLAEGKKMAQEILKVIHQKEPETKNIPITFAIYRQAPKSSLVPGNFVSYANVEKGSETVEDWQQINEKYYLFPSEQAKTDNKREDLARVSNFKAKLSDYFQGDYTAVIGTGMYRDDELREMKLDIPVQFNGKAEIVGFTQYVAGLVMEYFPNYMKVQVTIKSVERPEAIIIREAKQDEPLVKILD,not soluble
17,MGSDKIHHHHHHAKDKDAYRQYGINCIENGSYDDAVDAFQKALDQSVGSVGAEELDICYYKAKAQYLSGDVDGAIDTYTAIIDYNKDSDAYYLRGCIYFAKNDSDKGLKDFKTALSENNDNYELYLGVYETLSKYGMNDQGKEYLDNALKLKAKTADDYMQRGRIYTMLGDYDSAIKSLQKAIDEKLVKANYYMGEVYQKKGDNDSSQKYFKKYLDSGEADSYELMNMGQAQMDNGNYDTAITYFQNALELESVPNKQQITKAMIIAYEYSGDFATAKSKMEEYMKDYPDDEDAAREYQFLETR,not soluble
18,MSGKRKLEDYKSIIGEEEVSKIQEKAEKLKGRSFVHVNSTSFGGGVAEILHSLVPLLRSIGIEARWFVIEGPTEFFNVTKTFHNALQGNESLKLTEEMKELYLNVNRENSKFIDLSSFDYVLVHDPQPAALIEFYEKKSPWLWRCHIDLSSPNREFWEFLRRFVEKYDRYIFHLPLEHHHHHH,not soluble
19,MASMPSRTALSPGVLSPTRPVPNWIARPEYVGKPAAQEGSEPWVQTPEVIEKMRVAGRIAAGALAEAGKAVAPGVTTDELDRIAHEYLVDNGAYPSTLGYKGFPKSCCTSLNEVICHGIPDSTVITDGDIVNIDVTAYIGGVHGDTNATFPAGDVADEHRLLVDRTREATMRAINTVKPGRALSVIGRVIESYANRFGYNVVRDFTGHGIGTTFHNGLVVLHYDQPAVETIMQPGMTFTIEPMINLGALDYEIWDDGWTVVTKDRKWTAQFEHTLLVTDTGVEILTCL,soluble
20,VKLDDHTYQINGRVLLDDLNKKFGIEFEDSEDIDTIGGWLQSQNTNLQKDDFVDTEYDRWTITEIDNHQIIWVNLNYEFNSGRPSVNEEQEDDERD,not soluble
21,MGSDKIHHHHHHMSQDDLLSQEEIDALLKGVSGDEDNAQDERASREGKVRPFDPAKQHRIIRERLHALDIINERFARQFRVALFNLMRRSADITVESVRYQSYSEFSRNLPVPTNLNLITMKPLRGSALVVFPPSLVFMVVDNLFGGDGRFLTKSEGREFTRTEQRIIHRMLKMALEGYSESWKSVYPLDIEYTRSELQVKFANITNSPNEIVVNSTFHVEVGNLSSEFNICIPYSMIEPIRDILASPLHDTHPDEEQQWEARMAHEIRHSSVELTADFVDIPLRLRDVTQLSVGDIIPIELPEAVNVSVDGIPVMTCDYGSQKSQRALRVRHLIEHGSSQVAAKDPKDD,not soluble
22,GSMENTDVFLGLHDFLERMRKPSAGDFVKSIKSFIVSFSNNAPDPEKDCAMVQEFFSKMEAAFRAHPLWSGCSEEELDSAGDGLEKYVMTKLFTRVFASNTEEVIADEKLFQKMSLVQQFISPENLDIQPTFQNESSWLLAQKELQKINMYKAPRDKLVCILNCCKVINNLLLNASIASNENAPGADEFLPVLIYVTIKANPPQLHSNLLYIQRYRRESKLVGEAAYFFTNILSAESFISNIDAKSISLDEAEFEKNMESARARISG,soluble
